# Data as given in IntAct's records for PubMed 19731236.
# B1: Phospholipid-transporting ATPase IC (Homo sapiens), O43520 (parent)
# chain: MSTERDSETTFDEDSQPNDEVVPYSDDETEDELDDQGSAVEPEQNRVNREAEENREPFRKECTWQVKANDRKYHEQPHFMNTKFLCIKESKYANNAIKTYKYNAFTFIPMNLFEQFKRAANLYFLALLILQAVPQISTLAWYTTLVPLLVVLGVTAIKDLVDDVARHKMDKEINNRTCEVIKDGRFKVAKWKEIQVGDVIRLKKNDFVPADILLLSSSEPNSLCYVETAELDGETNLKFKMSLEITDQYLQREDTLATFDGFIECEEPNNRLDKFTGTLFWRNTSFPLDADKILLRGCVIRNTDFCHGLVIFAGADTKIMKNSGKTRFKRTKIDYLMNYMVYTIFVVLILLSAGLAIGHAYWEAQVGNSSWYLYDGEDDTPSYRGFLIFWGYIIVLNTMVPISLYVSVEVIRLGQSHFINWDLQMYYAEKDTPAKARTTTLNEQLGQIHYIFSDKTGTLTQNIMTFKKCCINGQIYGDHRDASQHNHNKIEQVDFSWNTYADGKLAFYDHYLIEQIQSGKEPEVRQFFFLLAVCHTVMVDRTDGQLNYQAASPDEGALVNAARNFGFAFLARTQNTITISELGTERTYNVLAILDFNSDRKRMSIIVRTPEGNIKLYCKGADTVIYERLHRMNPTKQETQDALDIFANETLRTLCLCYKEIEEKEFTEWNKKFMAASVASTNRDEALDKVYEEIEKDLILLGATAIEDKLQDGVPETISKLAKADIKIWVLTGDKKETAENIGFACELLTEDTTICYGEDINSLLHARMENQRNRGGVYAKFAPPVQESFFPPGGNRALIITGSWLNEILLEKKTKRNKILKLKFPRTEEERRMRTQSKRRLEAKKEQRQKNFVDLACECSAVICCRVTPKQKAMVVDLVKRYKKAITLAIGDGANDVNMIKTAHIGVGISGQEGMQAVMSSDYSFAQFRYLQRLLLVHGRWSYIRMCKFLRYFFYKNFAFTLVHFWYSFFNGYSAQTAYEDWFITLYNVLYTSLPVLLMGLLDQDVSDKLSLRFPGLYIVGQRDLLFNYKRFFVSLLHGVLTSMILFFIPLGAYLQTVGQDGEAPSDYQSFAVTIASALVITVNFQIGLDTSYWTFVNAFSIFGSIALYFGIMFDFHSAGIHVLFPSAFQFTGTASNALRQPYIWLTIILAVAVCLLPVVAIRFLSMTIWPSESDKIQKHRKRLKAEEQWQRRQQVFRRGVSTRRSAYAFSHQRGYADLISSGRSIRKKRSPLDAIVADGTAEYRRTGDS
# partner: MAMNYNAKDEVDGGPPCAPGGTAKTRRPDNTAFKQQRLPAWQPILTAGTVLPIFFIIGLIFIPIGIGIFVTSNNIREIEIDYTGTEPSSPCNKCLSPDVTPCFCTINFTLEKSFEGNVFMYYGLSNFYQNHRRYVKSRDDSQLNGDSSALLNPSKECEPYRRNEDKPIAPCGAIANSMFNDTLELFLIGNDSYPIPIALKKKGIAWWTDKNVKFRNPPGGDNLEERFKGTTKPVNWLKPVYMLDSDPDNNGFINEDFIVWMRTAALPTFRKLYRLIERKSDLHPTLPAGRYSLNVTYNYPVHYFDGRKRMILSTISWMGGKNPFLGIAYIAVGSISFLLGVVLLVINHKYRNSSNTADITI
# Variants of: B1
# Conditions: with cc50a_human TMEM30A
row,Variant,effect of a mutation on the interaction
1,D554N,disrupting interaction
2,D454A,disrupting interaction
3,I661T,decreasing interaction
4,D70N,decreasing interaction
5,R867C,decreasing interaction
6,G308V,disrupting interaction
7,G1040R,decreasing interaction
